Paper PMC9897663
Positions count from the first letter of the chain named. Numbers in names are those of the source.

How the values were obtained:
Experiment in all cases: purified protein
Settings in all cases: potassium phosphate pH 7.5, 22-23 °C
purified protein [1] = substrate: O=C(Nc1ccn([C@H]2C[C@H](O)[C@@H](CO)O2)c(=O)n1)c1ccccc1
purified protein [2] = substrate: O=C(Nc1ccn([C@H]2C[C@H](O)[C@@H](CO)O2)c(=O)n1)c1ccccc1; type: biochemical, uncultured bacterium
purified protein [3] = substrate: Nc1ccn([C@H]2C[C@H](O)[C@@H](CO)O2)c(=O)n1; type: biochemical, uncultured bacterium
[4] = substrate not given, inferred from the stated about twofold rise over wild type

B1: CDA_F14 (uncultured bacterium; G81L) (protein)
chain: MNKEDLLKKAFEAMENAYAPYSNYHVGACALMKDGTTFLGANIENASYGATNCGERSAIFAAYSNGYRADDIEALAIVTDLDRVGAPCGICRQVLSELLNDNTPIYLSNGKETLEKTIDELLPMRFTKEDLL
Km (purified protein [1]): (8.66 ± 3.8) × 10^-4 M | kcat (purified protein [1]): (7.89 ± 3.08) × 10^-1 s^-1

B2: CDA_F14 (uncultured bacterium) (protein)
chain: B1 chain with L81G
notes: recombinant in E. coli HMS174 delta-pyrF delta-cdd, purified; homotetramer, one Zn per subunit; active site formed by three subunits
Km (purified protein [2]): (1.15 ± 0.16) × 10^−4 M | kcat (purified protein [2]): (5.04 ± 0.4) × 10^−1 s^−1 | Km (purified protein [3]): (1.95 ± 0.36) × 10^−4 M | kcat (purified protein [3]): (24.4 ± 1.71) × 10^−1 s^−1

B3: CDA_F14 (uncultured bacterium; F126W) (protein)
chain: B1 chain with L81G, F126W
notes: as for B2
Km (purified protein [2]; [4]): (2.11 ± 0.38) × 10^−4 M

B4: CDA_F14 (uncultured bacterium; F126A) (protein)
chain: B1 chain with L81G, F126A
Km (purified protein [1]; [4]): (2.59 ± 0.73) × 10^−4 M

B5: CDA_F14 (uncultured bacterium; G81L/G85I) (protein)
chain: B1 chain with G85I
Km (purified protein [1]): (4.93 ± 1.3) × 10^-4 M | kcat (purified protein [1]): (4.14 ± 0.88) × 10^-2 s^-1
